PMC3575800 (Nucleic Acids Research, 2013)

T1: PH domain of the Tfb1 subunit of TFIIH (Tfb1PH; residues 1-115) (S. cerevisiae, UniProt P32776 1-115)
T1 sequence (looked up): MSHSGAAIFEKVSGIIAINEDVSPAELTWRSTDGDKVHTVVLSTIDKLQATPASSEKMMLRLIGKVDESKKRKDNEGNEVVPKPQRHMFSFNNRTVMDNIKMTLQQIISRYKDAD


Assays:
[1] = biological target: T1, PH domain of the Tfb1 subunit of TFIIH …; experiment: NMR titration
[2] = biological target: T1, PH domain of the Tfb1 subunit of TFIIH …; experiment: ITC

binding result [1]	Kd [2] [nM]	stoichiometry N [2]	fold reduction of affinity against Rad4 76-115 [2] [fold]	Binder
binds	–	–	–	RSEDEGCDSDECEWEEVELKPKNVK (peptide, UniProt P07276 359-383, looked up) [Rad2 residues 359-383 (acidic segment of the spacer region of Rad2)]
–	> 10000	–	–	FYQDEEDDLSDIDSEEVSLDGSL (peptide, UniProt Q06665 41-63, looked up) [Rad34 residues 41-63, W54S mutant]
–	–	1	50	TDDSVEEIQSSEEDYDSEEPEDVTDGNEVAGVEDISVEIK (domain or fragment, S. cerevisiae, UniProt P14736 76-115, looked up) [Rad4 residues 76-115, F95P mutant]

The remaining lines, values behind:

Binder	binding result [1]	Kd [2] [nM]	stoichiometry N [2]	fold reduction of affinity against Rad4 76-115 [2] [fold]
FYQDEEDDLSDIDWEEVSLDGSL (peptide, UniProt Q06665 41-63, looked up) [Rad34 residues 41-63]	–	11	1	–
TDDSVEEIQSSEEDYDSEEFEDVTDGNEVAGVEDISVEIK (domain or fragment, S. cerevisiae, UniProt P14736 76-115, looked up) [Rad4 residues 76-115 (acidic segment from the N-terminal region of Rad4)]	–	50	1	–
TDDSVEEIQSSEEDYDSEEFEDPTDGNEVAGVEDISVEIK (domain or fragment, S. cerevisiae, UniProt P14736 76-115, looked up) [Rad4 residues 76-115, V98P mutant]	–	–	1	24
